Measured values reported in patent publication JP2016528193A (dated 2016).

Key:
ヒトPCSK9(野生型) [1] = target: ヒトPCSK9(野生型) (human); experiment: KinExA solution equilibrium, PCSK9-coated beads
ヒトPCSK9(野生型) [2] = target: ヒトPCSK9(野生型) (human); experiment: Biacore at pH 6.0 (HBS-P with 0.01 % BSA), fitted from competition curves, n=1

B1: 31H4 (antibody, V domains shown)
VH: EVQLVESGGGLVKPGGSLRLSCAASGFTFSSYSMNWVRQAPGKGLEWVSSISSSSSYISYADSVKGRFTISRDNAKNSLYLQMNSLRAEDTAVYFCARDYDFWSAYYDAFDVWGQGTMVTVSS
VL: QSVLTQPPSVSGAPGQRVTISCTGSSSNIGAGYDVHWYQQLPGTAPKLLISGNSNRPSGVPDRFSGSKSGTSASLAITGLQAEDEADYYCQSYDSSLSGSVFGGGTKLTVLQ
Question: How did the Kd (ヒトPCSK9(野生型) [1]) turn out when B1 was run?
Answer: 0.003 nM

Question: What about the Kd (ヒトPCSK9(野生型) [2]) of the same binder?
Answer: 0.0125 nM

B2: 16F12 (antibody, V domains shown)
VH: QVHLVESGGGVVQPGRSLRLSCAASGFTFNSFGMHWVRQAPGKGLEWVALIWSDGSDEYYADSVKGRFTISRDNSKNTLYLQMNSLRAEDTAVYYCARAIAALYYYYGMDVWGQGTTVTVSS
VL: QSVLTQPPSVSAAPGQKVTISCSGSSSNIGNNFVSWYQQLPGTAPKLLIYDYNKRPSGIPDRFSGSKSGTSATLGITGLQTGDEADYYCGTWDSSLSAYVFGTGTRVTVLQ
Question: What does the source list for B2?
Answer: Kd (ヒトPCSK9(野生型) [1]): 0.015 nM; Kd (ヒトPCSK9(野生型) [2]): 0.029 nM
